The results in this text go back to the DeepSol protein solubility set.

The data set is described as follows: soluble on expression in E. coli; label from the status in PepcDB or PDB records.
In the case of “MGHHHHHHGGHMSLSPVLTQHVSQPITLDEQTQKMKRHLLQDIRRSAYVYRVDCGGCNACEIEIFAAITPVFDAERFGIKVVSSPRHADILLFTGAVTRAMRMPALRAYESAPDHKICVSYGACGVGGGIFHDLYSVWGGSDTIVPIDVWIPGCPPTPAATIHGFAVALGLLQQKIHAVDYRDPTGVTMQPLWPQIPPSQRIAIEREARRLAGYRQGREICDRLLRHLSDDPTGNRVNTWLRDADDPRLNSIVQQLFRVLRGLHDEGGS”, the “soluble on expression in E. coli” value is on record as “soluble”.

On to “MSLWQPLVLVLLVLGCCFAAPRQRQSTLVLFPGDLRTNLTDRQLAEEYLYRYGYTRVAEMRGESKSLGPALLLLQKQLSLPETGELDSATLKAMRTPRCGVPDLGRFQTFEGDLKWHHHNITYWIQNYSEDLPRAVIDDAFARAFALWSAVTPLTFTRVYSRDADIVIQFGVAEHGDGYPFDGKDGLLAHAFPPGPGIQGDAHFDDDELWSLGKGVVVPTRFGNADGAACHFPFIFEGRSYSACTTDGRSDGLPWCSTTANYDTDDRFGFCPSERLYTRDGNADGKPCQFPFIFQGQSYSACTTDGRSDGYRWCATTANYDRDKLFGFCPTRADSTVMGGNSAGELCVFPFTFLGKEYSTCTSEGRGDGRLWCATTSNFDSDKKWGFCPDQGYSLFLVAAHEFGHALGLDHSSVPEALMYPMYRFTEGPPLHKDDVNGIRHLYGPRPEPEPRPPTTTTPQPTAPPTVCPTGPPTVHPSERPTAGPTGPPSAGPTGPPTAGPSTATTVPLSPVDDACNVNIFDAIAEIGNQLYLFKDGKYWRFSEGRGSRPQGPFLIADKWPALPRKLDSVFEEPLSKKLFFFSGRQVWVYTGASVLGPRRLDKLGLGADVAQVTGALRSGRGKMLLFSGRRLWRFDVKAQMVDPRSASEVDRMFPGVPLDTHDVFQYREKAYFCQDRFYWRVSSRSELNQVDQVGYVTYDILQCPED”, for which the “soluble on expression in E. coli” value was “soluble”.

Consider “MSLSFTVAVKEEILGQHHLSRHELSAIIKMSGSIGLSTSGLTLSVVTENAKLARHLYESFLHFYEIKSEIRHHQRSNLRKNRVYTVFTDEKVQDLLSDLHLADSFFGLETGIDEAILSDEEAGRAYLCGAFLANGSIRDPESGKYQLEISSVYLDHAQGIASLLQQFLLDAKVLERKKGAVTYLQRAEDIMDFLIVIGAMQARDDFERVKILRETRNDLNRANNAETANIARTVSASMKTINNISKIKDIMGLENLPVDLQEVAQLRIQHPDYSIQQLADSLSTPLTKSGVNHRLRKINKIADELEGHHHHHH”, for which the “soluble on expression in E. coli” value was “soluble”.

On to “MNKIIKYIGASAVVCMMAGCTTNFEDFNTNPYQPSKVPASNLLSTMFNVYACPQQNACQEINCMWASFSGQVTATANWSFGKNIFAYYNASEGHNDSSWGRLYGYIYPSFFLVENSTEKKGVIYAMAQLTRVYGMQLLASLQGPIPYTQMKAGETEAPYDNEQTVWHAMFDDLDNAITILKSAATFGVNQDLAVVDQFYKGDCSKWLKFANTLKLRMAIRISGVEPEYAQTKAQEAVLGGVMESVGDSSYDTTNGGINENGYAIVSGWPEVRANACLVSYMNGYNDPRRPAYFTPQTQTAAGGYVGVRSGSAEIPEPTVYANYSKLFIATDKTLPQPVMYAAEAAFLRAEGALKGWNMGGDAKTFYEKGVRLSFEEFGVSGADDYLADATSIPGNYVDNLIAGHTGNNYTNQSSITIKWEDGADDAKKLERVLTQKWIACYPDPMNGWADFRRTGYPRIFPATESMNADCNTGRGQRRLRFTRSEYNNNKANVEAAVSMLSNGKDSNGTDLWWAMKENGTY”, for which the “soluble on expression in E. coli” value was “not soluble”.

Take “MGSDKIHHHHHHMSNTNDLLNRINAKYSTMSKGHKLLATYITDNYDKAVFLTAAKMGETVGISESTVVRFATSLGYKGYPDFQKALEELVRNKLNSVQRMEVTYGRISQSQILETVLQSDRDKIKTTLEKIDADAFDLAVDTILQSRKIYIVGIRSCAPLASFLAFYMNLMFEDVCLLTTNSSSELFEQMVRIGKDDVIIGISFPRYSMRTLKALEFANNRSAKVITITDSIHSPMNLYSSCNLIADSDMASIVDSLVAPLSVINALIVALCMKKQNIVAKTLTELEDIWNEYQVYENDEIDYIDDSIKVHYAKLGDSQDE”: the “soluble on expression in E. coli” value is listed as “not soluble”.

For the sequence “MKKSHYSVIIVGGGQAGLAISYLLKQESIDHVIFEKNQIGHAWRNQRWDSFCLVTPNWQCRLPGFPYAGGDDQGFMLKDEIVQYLEDYAASFQAPILEGVEVSKLSQRTDAFEVITSQGIYTADQVVVATGGYHTPKIAAIAKKLPPHIVQLHSVDYKNPETLPDRILLVGTGQSGCQIAEDLHLAGKTVHLATGSAPRSPRRYRGRDVVEWLELMGHYDLPIDEHPQKEMVRHKTNHYLTGRDGGREIDLRQFALEGMHLYGRLKDIDGNQILFADNLKENLDQADATAARIKQSIDEYIAKNQLDAPIEAPYQPVWEPTSIPLTLNIDEIDAVIWSTGFNFNYAWVDVPVFNSMGEPLHNRGVTNVAGLYFLGLPWLYTWGSGRFSGVARDAEYLAEKIRETLPANQINPCTVALEHHHHHH”, the “soluble on expression in E. coli” value was “not soluble”.

Turning to “MAHHHHHHMSNPWNAKLVEELLFRQYEKGEDVSMLLPPPPALSVDQYLKEYEQSTKVLFAYVRNGPANALTPQNINNPRMYGGTPTKGSSSMQRTGNQGGATCATTSSSSACGVDSKAQMQRHPRGLDGSQSAAPSLPLTAGDAAAGQGSMAPPEHIRKRIEWPATVPTNSALKSNSRSRVANLTTKRVAAQERVDPDLIFMQNPEELPLHTIFAKYPKAVESIAALRGGSGDWREDTFTEEEEILYKRELRYSHMGPSQCGFFRSNLIQR”, the “soluble on expression in E. coli” value is reported as “not soluble”.

“MREIVWVHSQRIAPYKTLILNEFCYYPLELDPTPFNALIFTSKNAVFSLLETLKNSPKLKMLQNIPAYALSEPTAKTLQDHHFKVAFMGEKAHGKEFVQEIFPLLEKKSVLYLRAKEIVSSLDTILLEHGIDFKQAVVYENKLKHLTLSEQNALKPKEKSILIFTAISHAKAFLHYFEFLENYTAISIGNTTALYLQEQGIPSYIAKKPSLEACLELALSLRIKEC”: the “soluble on expression in E. coli” value is given as “not soluble”.

With “MKKVTAMLFSMAVGLNAVSMAAKAKASEEQETDVLLIGGGIMSATLGTYLRELEPEWSMTMVERLEGVAQESSNGWNNAGTGHSALMELNYTPQNADGSISIEKAVAINEAFQISRQFWAHQVERGVLRTPRSFINTVPHMSFVWGEDNVNFLRARYAALQQSSLFRGMRYSEDHAQIKEWAPLVMEGRDPQQKVAATRTEIGTDVNYGEITRQLIASLQKKSNFSLQLSSEVRALKRNDDNTWTVTVADLKNGTAQNIRAKFVFIGAGGAALKLLQESGIPEAKDYAGFPVGGQFLVSENPDVVNHHLAKVYGKASVGAPPMSVPHIDTRVLDGKRVVLFGPFATFSTKFLKNGSLWDLMSSTTTSNVMPMMHVGLDNFDLVKYLVSQVMLSEEDRFEALKEYYPQAKKEDWRLWQAGQRVQIIKRDAEKGGVLRLGTEVVSDQQGTIAALLGASPGASTAAPIMLNLLEKVFGDRVSSPQWQATLKAIVPSYGRKLNGDVAATERELQYTSEVLGLNYDKPQAADSTPKPQLKPQPVQKEVADIAL”, the “soluble on expression in E. coli” value was “not soluble”.

As for “MSLSPNDHCFSSHTETGPRKRNEDFSVYIDDLNSLLTCHHGRISVFGVFDGHMGTSASDYCSFKIFNYLVSNPHFPENIQIALKESFKQVNKGFLTIADVLHINAGTTAGVCVIDDKKITTANIGDTEIMFCKRNHKPLILSNKHSPNNEIEKQRIELAGGKVFYFHGWRVEGLLGVSRSIGDIALKKFVIDEADTNQIERSPDDEFVLIGCDGLWNVISYDFCADMVREYLYTNNYNGVDENGIKKPINKKDIARYLVDLALFKQSLDNVTVSIYFFSKEGHHHHHH”, the “soluble on expression in E. coli” value is listed as “soluble”.

For the sequence “MGSDKIHHHHHHMRKERDYLGKLEIEGEVYYGIHTKRALMNFPSTGEKLDETFIWAYFMVKKACALLNTELGYLDERTGNAIVKACDEWEDLKKHVVVDPLSGGAGTSINMNVNEVIANRATEILGGKKGEYLVDPIDHVNLHQSTNDTFPTSAKIATIVKLRRLIDEVINLQEKIQEKEKEFYSIRKPGRTQLMDGPPIMLGQEFGAFADALARDRWRLYKVEERIRSVNIGGTAIGTGVGAPKDYILKIVEKVREVTKVKIAKAENLIDATQNWDVFAEVHGLLKSLAVNLYKISNDIRLLGSGPNTVIGELILPAVQAGSSIMPGKINPVVSEYVMQICHMVFGHDMILNHACALGNLELNQFAPLIVHLTLKSLTLLTNACRSLASYISKIKANNERCEEHLRRSVSNLTPLIKLFGYEAVSEAIKKANWDIKKAVEILSQEKNIPVEEILKVLNLKKMTGLGYSL”, the “soluble on expression in E. coli” value is listed as “not soluble”.

On to “MRLVIHGKNIDITDGIRSYLNQKIERATSHFQNVINEVDVHLSVARNRSTAPKQTAEVTVFVNGSVIRAEESSENLYASIDLVADKIARKLRKLKEKRQDKSRAKDTNSVVEPEVVTDLVGDRTPQLPEQVVRMKYFAMPPMTIQEALEHLEMVDHDFYVFRNRDTGEINVVYERNHGGYGVIQPRPTSNNHHHNTADAAAKATAKAGPLEHHHHHH”, for which the “soluble on expression in E. coli” value is recorded as “soluble”.

Consider “MGGSHHHHHHGMASALKAHMVRQHSRRQDLLPQLEAPSSLTPSSELSSPGQSELTNMDLAALFSDTPANASGSAGGSDEALNSGILTIDVTSVSSSLGGNLPANNSSLGPMEPLVLVAHSDIPPSLDSPLVLGTAATVLQQGSFSVDDVQTVSAGALGCLVALPMKNLSDDPLALTSNSNLAAHITTPTSSSTPRENASVPELLAPIKVEPDSPSRPGAVGQQEGSHGLPQSTLPSPAEQHGAQDTELSAGTGNFYLESGGSARTDYRAIQLAKEKKQRGAGSNAGASQSTQRKIKEGKMSPPHFHASQNSWLCGSLVVPSGGRPGPAPAAGVQCGAQGVQVQLVQDDPSGEGVLPSARGPATFLPFLTVDLPVYVLQEVLPSSGGPAGPEATQFPGSTINLQDLQ”, for which the “soluble on expression in E. coli” value is recorded as “not soluble”.

For “MSLDIQSLDIQCEELSDARWAELLPLLQQCQVVRLDDCGLTEARCKDISSALRVNPALAELNLRSNELGDVGVHCVLQGLQTPSCKIQKLSLQNCCLTGAGCGVLSSTLRTLPTLQELHLSDNLLGDAGLQLLCEGLLDPQCRLEKLQLEYCSLSAASCEPLASVLRAKPDFKELTVSNNDINEAGVRVLCQGLKDSPCQLEALKLESCGVTSDNCRDLCGIVASKASLRELALGSNKLGDVGMAELCPGLLHPSSRLRTLWIWECGITAKGCGDLCRVLRAKESLKELSLAGNELGDEGARLLCETLLEPGCQLESLWVKSCSFTAACCSHFSSVLAQNRFLLELQISNNRLEDAGVRELCQGLGQPGSVLRVLWLADCDVSDSSCSSLAATLLANHSLRELDLSNNCLGDAGILQLVESVRQPGCLLEQLVLYDIYWSEEMEDRLQALEKDKPSLRVIS”, the “soluble on expression in E. coli” value was “soluble”.

With “MNYNSKMEPLAIPEYGRNIQNMVNYCMTIGDRDERNRCAQTIITIMGNMFPERRENSETKHILWDHLAIMSGFKLDIDYPMEIISPELLERKPKAVSYSANDIVYRHYGHLIQEMILKACAMEQGEERYALELLIANQMKRSYLTWNKDTVDDYKIFKDLYELSEGRIELTEESCHLTIPNASDRKDNNNTKRNKVFRRK”, the “soluble on expression in E. coli” value is given as “not soluble”.

On to “MAHHHHHHMGTLEAQTQGPGSMSVFSGFPASPPDAILNLTVLYNADTNPKKVNLGVGAYRDESGKPWILPAVKEAEAIISSDLSKYNKEYPPVAGFPLFLEAAQFLMFGKDSKAAQEGRIASCQSLSGTGSLHIGFEFLHLWMPKAEFYMPSTTWPNHYGIYDKVFNKLKVPYKEYTYLRKDGELEIDFSNTKKDIQSAPEKSIFLFHACAHNPSGIDFTEAQWKELLPIMKEKKHIAFFDSAYQGFATGSFEADAFAVRMFVDAGVEVLVAQSFSKNFGLYGERIGCLHVVHAGVEGSVEKNKALSAAMVSGMTLQIRKTWSMSAIHGAYIVQVIVHDKRLLQMFYDNVKEMSARIHRMRSLLHASLAKRKTPGPGSKGTWDHILTAIGMFTFTGLTPEHVDYLKEKWSIYLVKAGGRMSMCGLTESNCDYVAEAIHDAVTKLPFKK”, for which the “soluble on expression in E. coli” value is given as “soluble”.
